Measurements from patent publication US20120329067, “Methods of Generating Zinc Finger Nucleases Having Altered Activity” (published 2012).

Key:
[1] = biological target: E3 zinc finger protein (three C-terminal fingers of E2C) (artificial); test: EMSA; settings: tags: no cleavage domain
[2] = biological target: E5 zinc finger protein (five C-terminal fingers of E2C) (artificial); test: EMSA; settings: tags: no cleavage domain
P3 ZFN FCD K441E = P3 ZFN FCD K441E (artificial, UniProt P14870 SEQ:1-284, K441E (FokI numbering)); test: cell_activity; settings: chain copies: 2 inferred
P3 ZFN FCD S418P = P3 ZFN FCD S418P (artificial, UniProt P14870 SEQ:1-284, S418P (FokI numbering)); test: cell_activity; settings: chain copies: 2 inferred
[3] = biological target: E4 zinc finger protein (four C-terminal fingers of E2C) (artificial); test: EMSA; settings: tags: no cleavage domain
[4] = biological target: E6 (E2C) six-finger zinc finger protein (artificial); test: EMSA; settings: tags: no cleavage domain
E6 (E2C) six-finger zinc finger protein (artificial), sequence (chain, as listed by the source): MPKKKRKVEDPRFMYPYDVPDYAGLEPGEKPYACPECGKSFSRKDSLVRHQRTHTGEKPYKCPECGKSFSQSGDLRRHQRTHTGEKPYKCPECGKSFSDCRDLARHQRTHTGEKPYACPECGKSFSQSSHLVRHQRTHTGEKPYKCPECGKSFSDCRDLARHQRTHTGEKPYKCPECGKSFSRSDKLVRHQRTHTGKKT

E3 zinc finger protein (three C-terminal fingers of E2C) (artificial), sequence (chain, as listed by the source): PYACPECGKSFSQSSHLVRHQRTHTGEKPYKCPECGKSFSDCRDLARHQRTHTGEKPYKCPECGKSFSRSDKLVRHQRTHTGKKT
P3 ZFN FCD S418P, sequence (P14870 other isoform, or with tags, fused parts or gaps S418P (FokI numbering) | S418P S418P): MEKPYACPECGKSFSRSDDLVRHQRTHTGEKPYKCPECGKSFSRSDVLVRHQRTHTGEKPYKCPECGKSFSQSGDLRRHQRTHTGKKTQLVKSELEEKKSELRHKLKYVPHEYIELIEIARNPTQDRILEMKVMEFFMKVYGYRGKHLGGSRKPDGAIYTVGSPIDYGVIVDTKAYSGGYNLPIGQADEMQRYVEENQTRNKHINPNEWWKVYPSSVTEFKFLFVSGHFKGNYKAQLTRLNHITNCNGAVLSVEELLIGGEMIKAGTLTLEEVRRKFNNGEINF
E5 zinc finger protein (five C-terminal fingers of E2C) (artificial), sequence (chain, as listed by the source): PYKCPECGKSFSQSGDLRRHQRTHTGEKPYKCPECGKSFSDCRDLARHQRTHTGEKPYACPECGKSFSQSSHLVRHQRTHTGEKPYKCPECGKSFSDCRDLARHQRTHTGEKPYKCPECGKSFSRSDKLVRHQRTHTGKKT
E4 zinc finger protein (four C-terminal fingers of E2C) (artificial), sequence (chain, as listed by the source): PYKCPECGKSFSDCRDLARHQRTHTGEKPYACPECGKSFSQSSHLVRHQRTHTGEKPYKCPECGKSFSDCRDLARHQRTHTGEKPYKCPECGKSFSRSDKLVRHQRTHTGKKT
P3 ZFN FCD K441E, sequence (P14870 other isoform, or with tags, fused parts or gaps K441E (FokI numbering) | K441E K441E): as the sequence (P14870 other isoform, or with tags, fused parts or gaps S418P (FokI numbering) | S418P S418P) above, with P123S, K146E counted along it

B1: E3 binding site (dsDNA)
DNA 1: GGGGCCGGA
DNA 2: TCCGGCCCC
Kd [1]: 35 nM

B2: E5 binding site (dsDNA)
DNA 1: GGGGCCGGAGCCGCA
DNA 2: TGCGGCTCCGGCCCC
Kd [2]: 4.2 nM

B3: P3/P3 cleavage site, MluI spacer (dsDNA)
DNA 1: CGCCACTGCACGCGTGCAGTGGCG
DNA 2: CGCCACTGCACGCGTGCAGTGGCG
binding signal (P3 ZFN FCD K441E): > 5 fold of wt FCD activity
binding signal (P3 ZFN FCD S418P): > 10 fold of wt FCD activity

B4: E4 binding site (dsDNA)
DNA 1: GGGGCCGGAGCC
DNA 2: GGCTCCGGCCCC
Kd [3]: 10.6 nM

B5: E6 (E2C) binding site (dsDNA)
DNA 1: GGGGCCGGAGCCGCAGTG
DNA 2: CACTGCGGCTCCGGCCCC
Kd [4]: 0.85 nM
